# Assay: yeast display, Sf9 membrane polyspecificity reagent, FACS + sequencing; frameworks hold sequencing errors
# Method in brief: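 Polyreactivity labels are assigned by the sorting gate from which each nanobody was recovered. The gates were low and high (top ~1%), set on anti-HA fluorescence for expression and streptavidin fluorescence for reagent binding. Before sorting, galactose-induced (36–48 hours) yeast display cells were stained for 1 hour at 4 °C with 10% biotinylated, detergent-solubilized Sf9 membrane reagent.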
row,Sequence,polyreactivity (PSR sort gate)
1,QVQLQESGGGLVLAGGSLRLSSAATGSISAQAYMGWDRQAPGKEREHVAGINYGDNTNYADSVKGRFTISRDNEHSVSADEQPESGRYRCVLLRGFLELFYYYIYWGQGTQVTVSS,high polyreactivity
2,QVQLVESGGGLVQAGGSLRLSCAASGSIFGGYGMGWYRQAPGKERELVAAITSGSSTYYADSVKGRFTISRDNAKNTVYLQMNSLKAEDTAVYYCAARPYTHSAYEGDYWGRGTQVTVSS,low polyreactivity
3,QVQLVESGGGLVQAGGSLRLSCAASGNIFGAYAMGWYRQAPGKERELVARINSGAITNYADSVKGRFTISRDNAKNTVYLQMNSLKPEDTAVYYCNKDTYYAGSYLDYDYWGQGTQVTVSS,low polyreactivity
4,QVQLLESGGGLVQAGGSLRLSCAASGSTLLQYAMGWYRQAPGKEREFVAAISASGARTYYADSVKGRFTISRDNAKNTVYLQMNSLKPEETAVYYCAALTQRSSFDYWGQGTQVTVSS,high polyreactivity
5,QVQLVESGGGLVQAGGSLRLSCAASGRIFRGYAMGWYRQAPGKERELVARITSGGRTYYADSVKGRFTISRDNAKNTVYLQMNSLKPEDTAVYYCATVGRGYDERHNYWGQGTQVTVSS,high polyreactivity
6,QVQLVESGGGLVQAGGSLRLSCAASGRIFPGYAMGWYRQAPGKERELVAAISSRGGSTYYADSVKGRFTISRDNAKHTVYLQMNSLKPEDTAVYYCAAEPSWWNVFYPGYNYWGQGTQVTVSS,high polyreactivity
7,QVQLVESGGGLVQAGGSLRLSCAASGRIFGAYAMGWYRQAPGKERELVAAIDIRGGNTYYADSVKGRFTISRDNAKNTVYLQMNSLKPEDTAVYYCAADTWYDAYNYWGQGTQVNVSS,low polyreactivity
8,QVQLVESGGGLVQAGGSLRLSCAASGFIFPSYVMGWYRQAPWKERELVATISHSGGSTYYADSVKGRFTLSRDNAKNTVYLQMNSLKPEDTAVYYCATRRRGPYSPYSPYDYWGQGTQVTVSS,high polyreactivity
9,QVQLVESGGGLVQAGGSLRLSCDASGSIFGRNAMGWYRQAPGKERELVAAISWRGGRTYYADSVKGRFTISRDNAKNTVYLQMNSLKPEDTAVYYCAATSGRPYEYGYWGQGTQVTVSS,high polyreactivity
10,QVQLVESGGGLVQAGGRLRLSCAASGRIFYFNAMGWYRQAPGKEREFVASINSIGDSTYYADSVKGRFTISRDNAKNTVYLQMNSLKPEDTAVYYCNADHGVINYRLDYWGQGTQVTVSS,low polyreactivity
11,QVQLVESGGGLVQAGGSLRLSCAASGSTFSSYGMGWYRQAPGKERELVAAITSSGGSTYYADSVKGRFTISRDNAKNTVYLQMNSLKPEDTAVYYCAASDVIFWLYYYWGQGTQVTVSS,low polyreactivity
12,QVQLVESGGGLVQAGGSLRLSCAASGRTFTRNAMGWYRQAPGKERELVAAITYRAGRTYYADSVKGRFTISRDNAKNTVYLQMNSLKPEDTAVYYCNVVPGASLKEDYWGQGTQVTVSS,low polyreactivity
13,QVQLVESGGLLVQAGGSLSLSCAASGRTFTPNAMGWYRQAPGKEREFVAAITYYGGSTRYADSVKGRFTISRDNAKNTVYLQMNSLIPEDTAVYYCAADVHYRYFYSWSSYSGYGYWGQGTQVTVSS,low polyreactivity
14,QVQLVESGGGLVQAGGSLRLSCAASGRTIVIYAMGWYRQAPGKERELVAAIRSGGRTNYADSVKVRFTISRDNAKNTVYLQMNSLIPEDTAVYYCATRGWLRSGYDYWGQGTQVTVSS,high polyreactivity
15,QVQLVESGGGLVQAGGSLRLSCAASGSIFSTYVMGWYRPAPGKERELVAAIRWRATSTFYADSVKGRFTISRDNAKNTVYLQMNSLKPEDTAVYYCNRYHRTSWRAKYDYWGQGTQVTVSS,high polyreactivity
16,QVQLVESGGGLVQAGGSLRFSCAASGFTFRKNAMGWYRQAPGKERELVAAISRRGGRTYYADSVKGRFTISRDNAKNTVYLQMNSLKPEDTAVYYCNADEYGGSTGRKGRYNYWGQGTQVTVSS,low polyreactivity
17,QVQLVESGGGLVQAGGSLRLSWAASGFTFNRYAMGWYRQAPGKERELVAAISGSGASTYYADSVKGRFTISRDNAKNTVYLQMNSLKPEDTAVYYCATRYSRSYRSRDYYYWGQGTQVTVSS,high polyreactivity
18,QVQLVESGGGLVQAGGSLRLSCAASGSTIYPNAMGWYRQAPGKERELVAVISSGGSTYYADSVKGRFTISRDNAKNTVYLLMNSLKPVDTAVYYCAADRGTVSYLYSPRAVDYWGQGTQVTVSS,low polyreactivity
19,QVQLVESVGGLDQAGGSLRLSGAASGSIFAHYAMGWYRQAPGKETELVARISWSGGSTYYADSVKGRFTISRDNAKNTVYLQMNSLKPEDTAVYYCARAGRSWDTLYKYYLEHDYWGQGTQETVSS,low polyreactivity
20,QVQLVESGGGLVQAGGSLRLSCAASGRTFVGYAMGWYRQAPGKERELVAAISRRGGSTYYADSVKGRFTISRDYAKKTVYLQMNSLKPEDTAVYYCARDYGGVGAPGSAGAYDYWGQGTQVTVSS,high polyreactivity
21,QVQLVESGGGLVQAGGSLRLSCAASGFTFWSYTMGRYRQPHGKETELVADISWSGGSTYYADSVKGRFTISRDNAKNTVYLQMNSLKPEDTAVLYCNADGPFWARRSSRYYWGQGTQVTVSS,high polyreactivity
22,QVQLQEGRGLVQAGGSLRLSSAASGYISSRPAMGWYRQAPCKERSFVATIADGTSTYYADSVKGRFTISRDNAINTVYLQMNSLKPEDTAVYYCAAAYNTEFYLSYWGQGTQVTVSC,high polyreactivity

row,Sequence,polyreactivity (PSR sort gate)
1,QVQLVESGGGLVQAGGSLRLSCAASGSTFKIYAMGWYRQAPGKERELVARITGRGGSTYYADSVKGRFTISRDNAKNTVYLQMNSLKPEDTAVYYCAARVYTFYYDLHKRYYWGQGTQVNVSS,high polyreactivity
2,QVQLHESGGGLVQPGGGLRLSCAPSGSISSTGFMGWNRKAPGKEREPVAAIAPGTTTYYADSVKGRFTISRDNAKNTVYLQMNSLRPEDTAVYYCAVFTDNRVAFLYWGQGTQVTVSS,low polyreactivity
3,QVQLVESGGGLVQAGGSLRLSCAASGFIFITVNAMGWYRQAPGKEREFVAAITRSGTGTYYADSVKGRFTISRDNAKNTVYLQMNSLKPEDTAVYYCAAEWSEESDYWGQGTQVTVSS,low polyreactivity
4,QVQLVESGGGLVQAGGRLRLSCAASGLIFYKYAMGWYRQAPGKERELVAAISSRTGSTSYADSVKGRFTISRDNAKNTVYLQMNSLKPEDTAVYYCAARPRYNEYGYWGQGTQVTVSS,high polyreactivity
5,QVQLVESGGGLVQAGGSLRLSCAASGRIYRDYAMGWYRQAPGKERELVATITWSGATTYYADSVKGRFTISRDNAKNTVYLQMNSLKPEDTAVYYCAKVYPRFYTFGEYNYWGQGTQVTVSS,low polyreactivity
6,QVQLVESGGGLVQAGGSLRLSCAASGSTFDFNAMGWYRQAPGKERELVAAITYSAGSTYSADSVKGRFTISRDNAQNTVDLQMNSLKPEDTAVYYCAAEDVYPGSIDMDDWGQGTQVTVSS,low polyreactivity
7,QVQLVESGGGLVQAGGSLRLSCAASGGIFHYYAMGWYRQAPGKERELVAAISWNTGSTYYADSVKGRFTISRDNAKNTVYLQINSLKPEDTAVYYCAASSRRSYLPEGQGEYWGQGTQVTVSS,high polyreactivity
8,QVQLVESGGGLVQSGGSLRLSCAASGSIFSAYAMGWYRQAPGKEREFVAAITRRGGNTYYADSVKGRFTISRDNAQNTVYLQMNSLKPEDSAVYYCAADAGGGPFDYWGQGTQVSVSS,low polyreactivity
9,QVQHVESGGGLVQAGGSLRLSCAASGYTFYIYAMGWYRQAHGKERELVATISSSGGGTYYADSVKGRFTISRDNAKNTVYLQMNSLTPEDTAVYYCNADGWYWQAQGYDYWGQGTQVTVSS,low polyreactivity
10,QVQLVESGGGLVQAGGSLRLSCAASGSIFGYYAMGWYRQAPGKEREFDADINSRDGGTYYADSVKGRFTISRDNAKNTVYLQMNSLKPEDTAVYYCAAPYYAAWVAVAIEYDYWGQGTQVTVSS,low polyreactivity
11,QVQLVESGGGLVQAGGSLRLSCAASGFIFYRNTMGWYRPAPGKEREFVAAIRWRGGSTYYADSVKGRFTISRDNAKNTVYVQMNSLKPEDTAGYYCAADTRPGYSGFEYWGQGTQVTVSS,high polyreactivity
12,QVQLVESGGGLVQAGGSLRLSCAASGSTCVSNAMGWYRQAPGKERELVAAISSGDNTNYADSVKGRFTISRDNAKNTVYVQMNSLKPEDTAVYYCAARAYRWRSFSTMYYWGQGTQVTVST,high polyreactivity
13,QVQLVESGGGLVQAGGSLRLSCAASGFIFYWYVMGWYRQAPGKERELVAGISKNGTNTYYADSVKGRFTISRDNAKNTVYLQMNSLKPEDTAVYYCAARGYIRSRHYLEGYWGQGTQVTVSS,high polyreactivity
14,QVQLVESGGGLVQAGGSLRLSCAASGRIFDPYAMGWYRQAPGKERELVATITRSGGSTYYADSVKGRFTISRDNAKNTVYLQMNSLKPEDTAVYYCAVGDGFEYDWGQGTQVTVSS,low polyreactivity
15,QVQLVESGGGLVQAGGSLRLSCAASGITFAYNAMGSYRQAPGKERELVARITSGGRTYYADSVKGRFTISRDNAKNTVYLQMNSLKPEDTAVYYCNAKEGSRYRKYDYWGQGTQVTVSS,low polyreactivity
16,QVQLVESGGGLVQAGGSLRLSCAASGSIFLKYAMGWYRQAPGKERELVATISRGGITYYADSVKGRFTISRDNAKNTVYLQMNSLKPEDTAVYYCATTGGRQYGYWGQGTQVTVSS,high polyreactivity
17,QVQLVESGGGLVQAGGSLRLSCAASGSTFPKYAMGWYRQAPGKERELVASISVTTGSTYYADSVKGRFTISRDSAKNTVYLQMNSQKPVDTAVFYCAKRTYSRKFRGAYNYWGQGTQVTVSS,high polyreactivity
18,QVQLVESGGGLVQAGGSLRLSCAASGGIFGYYAMGWYRQAPGKERELVAAISISGGRTYYADSVKGRFTISRDNAKNTVYLQMNSLKPEDTAVYYCKAARKVYVRGRGSEMDYWGQGTQVTVSS,low polyreactivity
19,QVQLVESGGGLLQAGGSLRLSCAASGSIFERNAIGWYRQAPGKERELVAVITRSGGSTYYADSVKGRFTISRDNAKNTVYLQMNSLKREDTAVYYCNARTAYFYGLDYWGQGTQVTVSS,high polyreactivity
20,QVQLEESGGGLVQAGGSLRLTCAGSGSIFYVYPMGWYRPAPGKERELVAAIYSGASTYYADSVKGRFTISRDNAKNTVYLQKNSLKPEDTAVYYCAAYVFFQTYFSYYVEGDFWGQGTQVTVSS,low polyreactivity
21,QVQLVESGGGLVQAGGSLRLSCAASGSIFHPYAMGWYRQAPGKERELVAAISKSGGNTYYADSVKGRFTISRDNAKNTVYLQMNSLKPEDTAVYYCAALDYWGQGTQLTVSS,low polyreactivity

# — the nanobody polyreactivity screen of Harvey et al. (2022)
